Assay results reported in patent US20210002623.

Assays:
[1] = target: T1, H-Trp-Phe-Tyr-Ser(PO3H2)-Pro-Arg-pNA
T1 chain: WFYSPR

[2] = target: T2, peptide YFLMNENRYTSWNSE
T2 chain: YFLMNENRYTSWNSE

B1: MjTET (TET aminopeptidase of Methanocaldococcus jannaschii, product of gene MJ0555) (protein)
chain: MSVVEYLKKLSKLHGISGREDSVREFMKKELEKYCDSVEIDNFGNLIAKRGNKGKKIMIAAHMDEIGLMVKYIDDNGFLKFTKIGGIYDPTILNQKVVVHGSKGDLIGVLGSKPPHRMKEEEKTKIIKYEDMFIDIGAESREEAIEMGVNIGTWVSFLSEVYDLGKNRLTGKAFDDRVGCAVLLEVMKRLSEEDIDCQVYAVGTVQEEVGLKGARVSAFKINPDVAIALDVTIAGDHPGIKKEDAPVDLGKGPVVGIVDASGRGLIAHPKVLDMIKAVSEKYKIDVQWEVGEGGTTDATAIHLTREGIPTGVISVPARYIHTPVEVIDKRDLEKTVELVYNCIKEVNNFF
For B1, the “peptide hydrolysis followed by reverse phase HPLC” value [1] was “After 5 minutes, the original peptide substrate was almost hydrolyzed and four peptide products were detected”, the time necessary to hydrolyse 50% of the peptide, at 20 °C [2] was 75 h and the time necessary to hydrolyse 50% of the peptide, at 30 °C [2] was 55 h. The time necessary to hydrolyse 50% of the peptide, at 40 °C [2] was 3.9 h, the time necessary to hydrolyse 50% of the peptide, at 50 °C [2] was 1.3 h and the time necessary to hydrolyse 50% of the peptide, at 60 °C [2] was 1 h. For the same protein, the time necessary to hydrolyse 50% of the peptide, at 70 °C [2] was 0.6 h and the time necessary to hydrolyse 50% of the peptide, at 80 °C [2] was 0.25 h.

B2: PhTET2 (leucyl aminopeptidase of Pyrococcus horikoshii) (protein)
chain: MEVRNMVDYELLKKVVEAPGVSGYEFLGIRDVVIEEIKDYVDEVKVDKLGNVIAHKKGEGPKVMIAAHMDQIGLMVTHIEKNGFLRVAPIGGVDPKTLIAQRFKVWIDKGKFIYGVGASVPPHIQKPEDRKKAPDWDQIFIDIGAESKEEAEDMGVKIGTVITWDGRLERLGKHRFVSIAFDDRIAVYTILEVAKQLKDAKADVYFVATVQEEVGLRGARTSAFGIEPDYGFAIDVTIAADIPGTPEHKQVTHLGKGTAIKIMDRSVICHPTIVRWLEELAKKHEIPYQLEILLGGGTDAGAIHLTKAGVPTGALSVPARYIHSNTEVVDERDVDATVELMTKALENIHELKI
For B2, the “time necessary to hydrolyse 50% of the peptide, at 40 °C” value [2] was 0.5 h for PhTET2 compared to 3,9 h for MjTET at 40 °C.
